*1 amine or outer side, *2 acyl side, *3 side chain or, on linkers, in order; H or OH if unused. The star is where a group is joined. C20 diacid = O=C(O)CCCCCCCCCCCCCCCCCCC(=O)*; C18 diacid = O=C(O)CCCCCCCCCCCCCCCCC(=O)*; γGlu = O=C(O)[C@H](CCC(=O)[*:2])N[*:1]; βAsp = O=C(O)[C@H](CC(=O)[*:2])N[*:1]; AEEA = NCCOCCOCC(=O)O
B1: calcitonin derivative M42 (peptide)
peptide: {C18 diacid}-EASQLSTAVLGRLSDELHRLQDYPRTDVGSGSP-NH2
SMILES: CC(C)C[C@H](NC(=O)[C@H](CCCNC(=N)N)NC(=O)CNC(=O)[C@H](CC(C)C)NC(=O)[C@@H](NC(=O)[C@H](C)NC(=O)[C@@H](NC(=O)[C@H](CO)NC(=O)[C@H](CC(C)C)NC(=O)[C@H](CCC(N)=O)NC(=O)[C@H](CO)NC(=O)[C@H](C)NC(=O)[C@H](CCC(=O)O)NC(=O)CCCCCCCCCCCCCCCCC(=O)O)[C@@H](C)O)C(C)C)C(=O)N[C@@H](CO)C(=O)N[C@@H](CC(=O)O)C(=O)N[C@@H](CCC(=O)O)C(=O)N[C@@H](CC(C)C)C(=O)N[C@@H](Cc1c[nH]cn1)C(=O)N[C@@H](CCCNC(=N)N)C(=O)N[C@@H](CC(C)C)C(=O)N[C@@H](CCC(N)=O)C(=O)N[C@@H](CC(=O)O)C(=O)N[C@@H](Cc1ccc(O)cc1)C(=O)N1CCC[C@H]1C(=O)N[C@@H](CCCNC(=N)N)C(=O)N[C@H](C(=O)N[C@@H](CC(=O)O)C(=O)N[C@H](C(=O)NCC(=O)N[C@@H](CO)C(=O)NCC(=O)N[C@@H](CO)C(=O)N1CCC[C@H]1C(N)=O)C(C)C)[C@@H](C)O
B2: calcitonin derivative M59 (peptide)
peptide: {C20 diacid-βAsp-AEEA-AEEA}-ASQLSTAVLGRLSEELHRLQDYPRTDVGSGSP-NH2
SMILES: CC(C)C[C@H](NC(=O)[C@H](CCCNC(=N)N)NC(=O)CNC(=O)[C@H](CC(C)C)NC(=O)[C@@H](NC(=O)[C@H](C)NC(=O)[C@@H](NC(=O)[C@H](CO)NC(=O)[C@H](CC(C)C)NC(=O)[C@H](CCC(N)=O)NC(=O)[C@H](CO)NC(=O)[C@H](C)NC(=O)COCCOCCNC(=O)COCCOCCNC(=O)C[C@H](NC(=O)CCCCCCCCCCCCCCCCCCC(=O)O)C(=O)O)[C@@H](C)O)C(C)C)C(=O)N[C@@H](CO)C(=O)N[C@@H](CCC(=O)O)C(=O)N[C@@H](CCC(=O)O)C(=O)N[C@@H](CC(C)C)C(=O)N[C@@H](Cc1c[nH]cn1)C(=O)N[C@@H](CCCNC(=N)N)C(=O)N[C@@H](CC(C)C)C(=O)N[C@@H](CCC(N)=O)C(=O)N[C@@H](CC(=O)O)C(=O)N[C@@H](Cc1ccc(O)cc1)C(=O)N1CCC[C@H]1C(=O)N[C@@H](CCCNC(=N)N)C(=O)N[C@H](C(=O)N[C@@H](CC(=O)O)C(=O)N[C@H](C(=O)NCC(=O)N[C@@H](CO)C(=O)NCC(=O)N[C@@H](CO)C(=O)N1CCC[C@H]1C(N)=O)C(C)C)[C@@H](C)O
B3: calcitonin derivative M11 (peptide)
peptide: {C20 diacid-γGlu}-ASQLSTAVLGRLSSELHRLQDYPRTDVGSGSP-NH2
SMILES: CC(C)C[C@H](NC(=O)[C@H](CCCNC(=N)N)NC(=O)CNC(=O)[C@H](CC(C)C)NC(=O)[C@@H](NC(=O)[C@H](C)NC(=O)[C@@H](NC(=O)[C@H](CO)NC(=O)[C@H](CC(C)C)NC(=O)[C@H](CCC(N)=O)NC(=O)[C@H](CO)NC(=O)[C@H](C)NC(=O)CC[C@H](NC(=O)CCCCCCCCCCCCCCCCCCC(=O)O)C(=O)O)[C@@H](C)O)C(C)C)C(=O)N[C@@H](CO)C(=O)N[C@@H](CO)C(=O)N[C@@H](CCC(=O)O)C(=O)N[C@@H](CC(C)C)C(=O)N[C@@H](Cc1c[nH]cn1)C(=O)N[C@@H](CCCNC(=N)N)C(=O)N[C@@H](CC(C)C)C(=O)N[C@@H](CCC(N)=O)C(=O)N[C@@H](CC(=O)O)C(=O)N[C@@H](Cc1ccc(O)cc1)C(=O)N1CCC[C@H]1C(=O)N[C@@H](CCCNC(=N)N)C(=O)N[C@H](C(=O)N[C@@H](CC(=O)O)C(=O)N[C@H](C(=O)NCC(=O)N[C@@H](CO)C(=O)NCC(=O)N[C@@H](CO)C(=O)N1CCC[C@H]1C(N)=O)C(C)C)[C@@H](C)O
B4: calcitonin derivative M36 (peptide)
peptide: {C20 diacid-γGlu}-KSQLSTEVLGRLSQELHRLQDYPRTDVGSGSP-NH2
SMILES: CC(C)C[C@H](NC(=O)[C@H](CCCNC(=N)N)NC(=O)CNC(=O)[C@H](CC(C)C)NC(=O)[C@@H](NC(=O)[C@H](CCC(=O)O)NC(=O)[C@@H](NC(=O)[C@H](CO)NC(=O)[C@H](CC(C)C)NC(=O)[C@H](CCC(N)=O)NC(=O)[C@H](CO)NC(=O)[C@H](CCCCN)NC(=O)CC[C@H](NC(=O)CCCCCCCCCCCCCCCCCCC(=O)O)C(=O)O)[C@@H](C)O)C(C)C)C(=O)N[C@@H](CO)C(=O)N[C@@H](CCC(N)=O)C(=O)N[C@@H](CCC(=O)O)C(=O)N[C@@H](CC(C)C)C(=O)N[C@@H](Cc1c[nH]cn1)C(=O)N[C@@H](CCCNC(=N)N)C(=O)N[C@@H](CC(C)C)C(=O)N[C@@H](CCC(N)=O)C(=O)N[C@@H](CC(=O)O)C(=O)N[C@@H](Cc1ccc(O)cc1)C(=O)N1CCC[C@H]1C(=O)N[C@@H](CCCNC(=N)N)C(=O)N[C@H](C(=O)N[C@@H](CC(=O)O)C(=O)N[C@H](C(=O)NCC(=O)N[C@@H](CO)C(=O)NCC(=O)N[C@@H](CO)C(=O)N1CCC[C@H]1C(N)=O)C(C)C)[C@@H](C)O
B5: calcitonin derivative M26 (peptide)
peptide: {C20 diacid-γGlu}-VSQLSTVVLGRLSQELHRLQDYPRTDVGSGSP-NH2
SMILES: CC(C)C[C@H](NC(=O)[C@H](CCCNC(=N)N)NC(=O)CNC(=O)[C@H](CC(C)C)NC(=O)[C@@H](NC(=O)[C@@H](NC(=O)[C@@H](NC(=O)[C@H](CO)NC(=O)[C@H](CC(C)C)NC(=O)[C@H](CCC(N)=O)NC(=O)[C@H](CO)NC(=O)[C@@H](NC(=O)CC[C@H](NC(=O)CCCCCCCCCCCCCCCCCCC(=O)O)C(=O)O)C(C)C)[C@@H](C)O)C(C)C)C(C)C)C(=O)N[C@@H](CO)C(=O)N[C@@H](CCC(N)=O)C(=O)N[C@@H](CCC(=O)O)C(=O)N[C@@H](CC(C)C)C(=O)N[C@@H](Cc1c[nH]cn1)C(=O)N[C@@H](CCCNC(=N)N)C(=O)N[C@@H](CC(C)C)C(=O)N[C@@H](CCC(N)=O)C(=O)N[C@@H](CC(=O)O)C(=O)N[C@@H](Cc1ccc(O)cc1)C(=O)N1CCC[C@H]1C(=O)N[C@@H](CCCNC(=N)N)C(=O)N[C@H](C(=O)N[C@@H](CC(=O)O)C(=O)N[C@H](C(=O)NCC(=O)N[C@@H](CO)C(=O)NCC(=O)N[C@@H](CO)C(=O)N1CCC[C@H]1C(N)=O)C(C)C)[C@@H](C)O
B6: calcitonin derivative M43 (peptide)
peptide: {C20 diacid-βAsp}-ASQLSTAVLGRLSDELHRLQDYPRTDVGSGSP-NH2
SMILES: CC(C)C[C@H](NC(=O)[C@H](CCCNC(=N)N)NC(=O)CNC(=O)[C@H](CC(C)C)NC(=O)[C@@H](NC(=O)[C@H](C)NC(=O)[C@@H](NC(=O)[C@H](CO)NC(=O)[C@H](CC(C)C)NC(=O)[C@H](CCC(N)=O)NC(=O)[C@H](CO)NC(=O)[C@H](C)NC(=O)C[C@H](NC(=O)CCCCCCCCCCCCCCCCCCC(=O)O)C(=O)O)[C@@H](C)O)C(C)C)C(=O)N[C@@H](CO)C(=O)N[C@@H](CC(=O)O)C(=O)N[C@@H](CCC(=O)O)C(=O)N[C@@H](CC(C)C)C(=O)N[C@@H](Cc1c[nH]cn1)C(=O)N[C@@H](CCCNC(=N)N)C(=O)N[C@@H](CC(C)C)C(=O)N[C@@H](CCC(N)=O)C(=O)N[C@@H](CC(=O)O)C(=O)N[C@@H](Cc1ccc(O)cc1)C(=O)N1CCC[C@H]1C(=O)N[C@@H](CCCNC(=N)N)C(=O)N[C@H](C(=O)N[C@@H](CC(=O)O)C(=O)N[C@H](C(=O)NCC(=O)N[C@@H](CO)C(=O)NCC(=O)N[C@@H](CO)C(=O)N1CCC[C@H]1C(N)=O)C(C)C)[C@@H](C)O

Target: T1, human amylin receptor (AMY3) on CHO-K1/Gal5/AMY3 cells (human, UniProt P30988 25-474; O60896 24-148)
T1 sequence (looked up) 1: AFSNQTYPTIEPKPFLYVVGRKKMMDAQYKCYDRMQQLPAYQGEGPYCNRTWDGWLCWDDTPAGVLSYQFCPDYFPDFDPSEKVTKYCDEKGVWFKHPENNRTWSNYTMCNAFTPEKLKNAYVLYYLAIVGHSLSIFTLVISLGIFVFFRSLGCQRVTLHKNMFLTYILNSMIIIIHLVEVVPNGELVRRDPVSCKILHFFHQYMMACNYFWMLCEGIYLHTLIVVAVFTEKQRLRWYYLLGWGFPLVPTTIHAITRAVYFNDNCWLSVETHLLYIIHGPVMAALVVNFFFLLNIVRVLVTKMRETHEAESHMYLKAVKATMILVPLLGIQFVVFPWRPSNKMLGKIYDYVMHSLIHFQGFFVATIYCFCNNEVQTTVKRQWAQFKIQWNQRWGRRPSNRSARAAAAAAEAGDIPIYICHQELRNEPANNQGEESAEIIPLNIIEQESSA
T1 sequence (looked up) 2: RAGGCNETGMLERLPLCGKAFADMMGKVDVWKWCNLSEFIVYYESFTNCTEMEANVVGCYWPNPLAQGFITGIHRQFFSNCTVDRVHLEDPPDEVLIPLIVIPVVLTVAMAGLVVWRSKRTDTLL
Test: cell-based or functional assay

Binder | EC50/nM, CRE-luciferase in amylin receptor/CRE-luc CHO cells [nM]
B1 | 0.016
B2 | 0.017
B3 | 0.017
B4 | 0.032
B5 | 0.079
B6 | 0.017
